Substitutions are numbered along the chain they refer to. Names may count otherwise.
B1: MTSP-1 ins97aA/F97G/T98L/C122S/Q175M/Q192A/D217I/K224R (enzyme)
chain: VVGGTDADEGEWPWQVSLHALGQGHICGASLISPNWLVSAAHCYIDDRGFRYSDPTQWTAFLGLHDQSQRSAPGVQERRLKRIISHPFFNDGALFDYDIALLELEKPAEYSSMVRPISLPDASHVFPAGKAIWVTGWGHTQYGGTGALILQKGEIRVINQTTCENLLPQMITPRMMCVGFLSGGVDSCAGDSGGPLSSVEADGRIFQAGVVSWGIGCAQRNRPGVYTRLPLFRDWIKENTGV
B2: MTSP-1 Q38H/I41A/D60bE/F60eH/Y60gW/ins97aE/F97T/T98G/F99L/C122S/Q175L/Q192D (enzyme)
chain: VVGGTDADEGEWPWQVSLHALGHGHACGASLISPNWLVSAAHCYIDERGHRWSDPTQWTAFLGLHDQSQRSAPGVQERRLKRIISHPFFNDTEGLDYDIALLELEKPAEYSSMVRPISLPDASHVFPAGKAIWVTGWGHTQYGGTGALILQKGEIRVINQTTCENLLPQLITPRMMCVGFLSGGVDSCDGDSGGPLSSVEADGRIFQAGVVSWGDGCAQRNKPGVYTRLPLFRDWIKENTGV
B3: MTSP-1 Q38H/I41S/D60bT/F60eS/ins97aV/F97D/T98P/F99L/C122S/G151H/Q175A/Q192D (enzyme)
chain: B2 chain with A26S, E47T, H50S, W52Y, T92D, E93V, G94P, G146H, L170A
B4: MTSP-1 Q38L/I41T/D60bR/F60eL/Y60gM/F97T/ins97aE/T98G/F99L/C122S/G151N/Q175L/Q192G (enzyme)
chain: B2 chain with H23L, A26T, E47R, H50L, W52M, G146N, D189G
B5: MTSP-1 Q38H/I41A/F60eH/Y60gW/ins97aE/F97T/T98G/F99L/C122S/Q175L/Q192A (enzyme)
chain: B2 chain with E47D, D189A
B6: MTSP-1 Q38H/I41S/D60bT/F60eS/Y60gW/F97D/ins97aV/T98P/F99L/C122S/G151H/Q175A/Q192D (enzyme)
chain: B2 chain with A26S, E47T, H50S, T92D, E93V, G94P, G146H, L170A
B7: MTSP-1 Q38R/I41V/D60bV/F60eV/Y60gF/ins97aE/F97T/T98G/F99L/C122S/Q175L/Q192G (enzyme)
chain: B2 chain with H23R, A26V, E47V, H50V, W52F, D189G
B8: MTSP-1 I41T/D60bW/F60eH/F97D/ins97aV/T98P/F99L/C122S/G151N/Q175L/Q192G (enzyme)
chain: B2 chain with H23Q, A26T, E47W, W52Y, T92D, E93V, G94P, G146N, D189G
B9: MTSP-1 Q38L/H40P/I41T/D60bV/F60eH/Y60gL/ins97aE/F97T/T98G/F99L/C122S/Q175L/Q192A (enzyme)
chain: B2 chain with H23L, H25P, A26T, E47V, W52L, D189A
B10: MTSP-1 Q38R/I41T/D60bH/ins97aE/F97T/T98G/F99L/C122S/Q175L/Q192G (enzyme)
chain: B2 chain with H23R, A26T, E47H, H50F, W52Y, D189G
B11: MTSP-1 Q38H/I41S/D60bA/F60eV/ins97aE/F97T/T98G/F99L/C122S/Q175L/Q192E/Q209L (enzyme)
chain: B2 chain with A26S, E47A, H50V, W52Y, D189E, Q207L
B12: MTSP-1 Q38K/I41T/ins97aE/F97T/T98G/F99L/C122S/Q175L/Q192A (enzyme)
chain: B2 chain with H23K, A26T, E47D, H50F, W52Y, D189A
B13: MTSP-1 Q38H/I41S/D60bT/F60eT/F97D/ins97aV/T98P/F99L/C122S/G151N/Q175L/Q192V (enzyme)
chain: B2 chain with A26S, E47T, H50T, W52Y, T92D, E93V, G94P, G146N, D189V
B14: MTSP-1 Q38H/I41A/D60bT/F60eH/Y60gW/ins97aE/F97T/T98G/F99L/C122S/Q175L/Q192D (enzyme)
chain: B2 chain with E47T
B15: MTSP-1 Q38H/I41A/D60bE/F60eH/Y60gW/F97T/ins97aE/T98G/F99L/C122S/G151N/Q175L/Q192D (enzyme)
chain: B2 chain with G146N
B16: MTSP-1 Q38H/I41A/D60bT/F60eK/Y60gW/ins97aE/F97T/T98G/F99L/C122S/Q175L/Q192D (enzyme)
chain: B2 chain with E47T, H50K
B17: MTSP-1 Q38H/I41A/F97T/ins97aE/T98G/F99L/C122S/Q175L/Q192G (enzyme)
chain: B2 chain with E47D, H50F, W52Y, D189G
B18: MTSP-1 Q38H/H40P/I41A/F60eQ/Y60gW/F97T/ins97aE/T98G/F99L/C122S/Q175L/Q192D (enzyme)
chain: B2 chain with H25P, E47D, H50Q
B19: MTSP-1 Q38H/I41S/D60bA/F60eV/ins97aE/F97T/T98G/F99L/C122S/Q175L/Q192V (enzyme)
chain: B2 chain with A26S, E47A, H50V, W52Y, D189V
B20: MTSP-1 Q38H/I41A/D60bV/F60eH/ins97aE/F97T/T98G/F99L/C122S/Q175L/Q192D (enzyme)
chain: B2 chain with E47V, W52Y
B21: MTSP-1 Q38Y/I41A/D60bL/F60eQ/ins97aV/F97D/T98P/F99L/C122S/G151N/Q175M/Q192A (enzyme)
chain: B2 chain with H23Y, E47L, H50Q, W52Y, T92D, E93V, G94P, G146N, L170M, D189A
B22: MTSP-1 Q38H/I41A/D60bT/F60eK/Y60gW/F97T/ins97aE/T98G/F99L/C122S/Q175L/Q192A (enzyme)
chain: B2 chain with E47T, H50K, D189A
B23: MTSP-1 Q38H/I41T/D60bV/F60eQ/F97T/ins97aE/T98G/F99L/C122S/Q175L/Q192G (enzyme)
chain: B2 chain with A26T, E47V, H50Q, W52Y, D189G
B24: MTSP-1 Q38H/I41S/D60bT/F60eR/ins97aE/F97T/T98G/F99L/C122S/Q175L/Q192E (enzyme)
chain: B2 chain with A26S, E47T, H50R, W52Y, D189E
B25: MTSP-1 Q38G/H40R/I41H/D60bH/F60eK/F97T/ins97aE/T98G/F99L/C122S/Q175L/V183A/Q192G (enzyme)
chain: B2 chain with H23G, H25R, A26H, E47H, H50K, W52Y, V178A, D189G
B26: MTSP-1 Q38H/I41S/D60bF/F60eV/F97D/ins97aV/T98P/F99L/C122S/G151N/Q175L/Q192A (enzyme)
chain: B2 chain with A26S, E47F, H50V, W52Y, T92D, E93V, G94P, G146N, D189A
B27: MTSP-1 Q38H/I41A/D60bV/F60eI/Y60gW/F97T/ins97aE/T98G/F99L/C122S/G151N/Q175L/Q192D (enzyme)
chain: B2 chain with E47V, H50I, G146N
B28: MTSP-1 Q38H/I41A/D60bV/F60eR/ins97aE/F97T/T98G/F99L/C122S/G151N/Q175L/Q192D (enzyme)
chain: B2 chain with E47V, H50R, W52Y, G146N

Target: plasma purified human complement protein C3 (human) (UniProt P01024)
Sequence (P01024 23-667, chain 1 of 2): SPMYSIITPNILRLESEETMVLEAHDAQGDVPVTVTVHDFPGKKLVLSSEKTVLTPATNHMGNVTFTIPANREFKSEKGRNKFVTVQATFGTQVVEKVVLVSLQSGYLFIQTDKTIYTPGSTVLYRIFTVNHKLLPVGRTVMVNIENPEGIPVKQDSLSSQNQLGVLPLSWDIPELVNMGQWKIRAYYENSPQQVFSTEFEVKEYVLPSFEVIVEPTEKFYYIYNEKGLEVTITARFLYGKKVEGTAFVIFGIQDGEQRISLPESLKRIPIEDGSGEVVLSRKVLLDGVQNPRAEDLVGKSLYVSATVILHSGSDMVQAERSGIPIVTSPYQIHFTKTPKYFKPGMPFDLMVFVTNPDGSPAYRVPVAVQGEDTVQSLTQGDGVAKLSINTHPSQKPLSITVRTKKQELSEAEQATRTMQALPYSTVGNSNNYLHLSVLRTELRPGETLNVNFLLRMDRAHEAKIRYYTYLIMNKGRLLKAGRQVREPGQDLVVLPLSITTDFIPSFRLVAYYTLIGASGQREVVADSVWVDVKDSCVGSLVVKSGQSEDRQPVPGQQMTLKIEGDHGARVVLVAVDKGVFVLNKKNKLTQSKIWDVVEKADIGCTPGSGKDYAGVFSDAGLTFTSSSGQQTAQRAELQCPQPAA
Sequence (P01024 672-1663, chain 2 of 2): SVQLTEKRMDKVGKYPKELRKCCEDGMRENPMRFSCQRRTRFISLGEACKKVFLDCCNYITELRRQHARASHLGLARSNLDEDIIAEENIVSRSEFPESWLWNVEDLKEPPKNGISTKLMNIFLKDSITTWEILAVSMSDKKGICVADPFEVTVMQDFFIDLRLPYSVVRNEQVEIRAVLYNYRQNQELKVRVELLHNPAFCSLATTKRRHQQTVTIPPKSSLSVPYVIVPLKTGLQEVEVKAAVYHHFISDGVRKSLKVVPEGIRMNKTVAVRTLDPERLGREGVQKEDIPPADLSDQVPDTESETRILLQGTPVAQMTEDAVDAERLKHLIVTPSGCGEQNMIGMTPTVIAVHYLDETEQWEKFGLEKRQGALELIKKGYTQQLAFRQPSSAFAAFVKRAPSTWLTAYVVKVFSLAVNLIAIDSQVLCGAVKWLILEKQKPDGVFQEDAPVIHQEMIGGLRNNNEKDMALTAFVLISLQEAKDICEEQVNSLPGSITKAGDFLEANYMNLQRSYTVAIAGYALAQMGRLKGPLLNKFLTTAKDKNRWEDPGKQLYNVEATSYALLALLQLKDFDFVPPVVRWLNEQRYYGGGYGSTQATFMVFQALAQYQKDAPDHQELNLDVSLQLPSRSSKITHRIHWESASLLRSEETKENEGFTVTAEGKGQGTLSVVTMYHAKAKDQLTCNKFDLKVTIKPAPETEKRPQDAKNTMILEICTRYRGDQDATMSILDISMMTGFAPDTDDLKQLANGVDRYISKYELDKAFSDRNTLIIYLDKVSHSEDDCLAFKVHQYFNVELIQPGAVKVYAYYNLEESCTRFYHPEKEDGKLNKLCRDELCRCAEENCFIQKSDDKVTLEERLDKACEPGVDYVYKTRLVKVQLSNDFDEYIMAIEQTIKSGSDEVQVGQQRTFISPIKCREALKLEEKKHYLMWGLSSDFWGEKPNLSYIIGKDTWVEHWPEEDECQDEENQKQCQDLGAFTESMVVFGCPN
Experiment: cell-based or functional assay

Binder | EC50 of hC3 cleavage [nM]
B1 | 0.866
B2 | 5.38
B3 | 67.8
B4 | 23.7
B5 | 3.09
B6 | 22.6
B7 | 18.3
B8 | 3.1
B9 | 6.47
B10 | 26.2
B11 | 16.9
B12 | 37.8
B13 | 5.08
B14 | 2.28
B15 | 8.28
B16 | 3.82
B17 | 3.9
B18 | 5.04
B19 | 10.9
B20 | 5.31
B21 | 1.53
B22 | 2.71
B23 | 4.93
B24 | 15.4
B25 | 27.7
B26 | 1.57
B27 | 2.91
B28 | 6.06

— US20240018502A1
